Data on seven compounds can be found in PMC3629973 (Nuclear medicine and biology, 2012).

The subject of data set [1] is PC-3 cells. Kind of data set: In vitro internalization assay. Conditions: 37°C, postincubation. It is filed as cell-based, human.
Data set [2] in a line: Biodistribution in healthy CF-1 mice. It is filed as in vivo, mouse. The conditions noted are these: female, CF-1, mouse, iv, 750 kBq, total radioactivity.
The subject of data set [3] is CF-1 mice. Kind of data set: Biodistribution in healthy CF-1 mice. It counts as in vivo, mouse. Conditions: CF-1 mice, tail vein injection, after 1 h p.i.
Data set [4] deals with PC-3 tumor-bearing SCID mouse. The experiment in a line: MicroPET/CT imaging. The conditions noted are these: PC-3 tumor-bearing mouse, 26 MBq via tail vein, 15 h p.i. It is filed as in vivo.
Data set [5] is described as follows: in vivo. The conditions noted are these: female, SCID, mouse, iv, 750 kBq, total radioactivity; for tissue uptake at 1 h / tissue uptake at 4 h / tissue uptake at 24 h: Biodistribution.
Data set [6] can be described thus: Biodistribution in PC-3 tumor-bearing SCID mice. The conditions noted are these: female, mouse, in vivo, iv, total radioactivity; for tissue uptake at 24 h: 24 h p.i.
Data set [7] relates to PC-3 tumor-bearing SCID mice. Kind of data set: Biodistribution in PC-3 tumor-bearing SCID mice. The conditions noted are these: PC-3 tumor-bearing SCID mice, tail vein injection, 1 h p.i., mean±S.D., n=5, bilateral xenografts.
The subject of data set [8] is PC-3 cells. The experiment in a line: Blocking experiment, cellular uptake of tracer. It is filed as cell-based, human. The conditions noted are these: 50 μg blocker added 15 min prior to tracer.
Data set [9] concerns GRPr. Conditions: read-out: GRPr binding affinity; nonmetallated probe; cited from earlier work.
Data set [10] concerns PC-3 tumor uptake in nude mice. The conditions noted are these: mouse, in vivo; cited from earlier work.
The conditions of data set [11]: later time points; cited from earlier work.
In data set [12] the target is αvβ3 receptors on PC-3 cells (Homo sapiens, UniProt P05106+P06756). The experiment in a line: Cell binding assay, displacement of 125I-Echistatin in PC-3 cells. (In a radioligand displacement assay an active substance lowers the binding of a labelled ligand.)
αvβ3 receptors on PC-3 cells, sequence (P06756 31-889 limits assumed): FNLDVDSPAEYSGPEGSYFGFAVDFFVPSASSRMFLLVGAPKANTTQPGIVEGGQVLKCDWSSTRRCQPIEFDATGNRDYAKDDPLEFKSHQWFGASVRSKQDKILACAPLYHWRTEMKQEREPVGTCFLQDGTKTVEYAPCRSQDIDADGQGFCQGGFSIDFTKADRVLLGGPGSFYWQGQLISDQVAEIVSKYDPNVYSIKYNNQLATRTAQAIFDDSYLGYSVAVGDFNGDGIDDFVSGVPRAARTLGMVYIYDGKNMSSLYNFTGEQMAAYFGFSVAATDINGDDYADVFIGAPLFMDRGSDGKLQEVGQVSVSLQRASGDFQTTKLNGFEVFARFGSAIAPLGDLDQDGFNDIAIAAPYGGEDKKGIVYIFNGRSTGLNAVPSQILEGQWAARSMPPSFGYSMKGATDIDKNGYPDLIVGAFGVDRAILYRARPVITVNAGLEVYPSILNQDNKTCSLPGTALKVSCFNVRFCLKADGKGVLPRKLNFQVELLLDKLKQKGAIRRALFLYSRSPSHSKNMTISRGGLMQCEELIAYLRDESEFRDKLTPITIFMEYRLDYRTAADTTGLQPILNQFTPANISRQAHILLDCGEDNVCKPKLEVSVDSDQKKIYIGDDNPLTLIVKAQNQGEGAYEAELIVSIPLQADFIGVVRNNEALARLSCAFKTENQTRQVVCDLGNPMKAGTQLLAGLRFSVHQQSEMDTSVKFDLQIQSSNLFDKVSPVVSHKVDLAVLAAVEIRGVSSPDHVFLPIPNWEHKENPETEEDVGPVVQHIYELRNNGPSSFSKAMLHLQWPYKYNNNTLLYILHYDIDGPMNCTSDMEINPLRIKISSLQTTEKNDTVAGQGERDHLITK
αvβ3 receptors on PC-3 cells, sequence (P06756 891-1048 partner limits assumed): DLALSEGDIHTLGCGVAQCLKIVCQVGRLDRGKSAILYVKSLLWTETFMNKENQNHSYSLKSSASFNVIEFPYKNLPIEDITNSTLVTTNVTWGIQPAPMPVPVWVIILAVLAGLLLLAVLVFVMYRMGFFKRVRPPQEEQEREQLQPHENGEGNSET
αvβ3 receptors on PC-3 cells, sequence (P05106 27-788): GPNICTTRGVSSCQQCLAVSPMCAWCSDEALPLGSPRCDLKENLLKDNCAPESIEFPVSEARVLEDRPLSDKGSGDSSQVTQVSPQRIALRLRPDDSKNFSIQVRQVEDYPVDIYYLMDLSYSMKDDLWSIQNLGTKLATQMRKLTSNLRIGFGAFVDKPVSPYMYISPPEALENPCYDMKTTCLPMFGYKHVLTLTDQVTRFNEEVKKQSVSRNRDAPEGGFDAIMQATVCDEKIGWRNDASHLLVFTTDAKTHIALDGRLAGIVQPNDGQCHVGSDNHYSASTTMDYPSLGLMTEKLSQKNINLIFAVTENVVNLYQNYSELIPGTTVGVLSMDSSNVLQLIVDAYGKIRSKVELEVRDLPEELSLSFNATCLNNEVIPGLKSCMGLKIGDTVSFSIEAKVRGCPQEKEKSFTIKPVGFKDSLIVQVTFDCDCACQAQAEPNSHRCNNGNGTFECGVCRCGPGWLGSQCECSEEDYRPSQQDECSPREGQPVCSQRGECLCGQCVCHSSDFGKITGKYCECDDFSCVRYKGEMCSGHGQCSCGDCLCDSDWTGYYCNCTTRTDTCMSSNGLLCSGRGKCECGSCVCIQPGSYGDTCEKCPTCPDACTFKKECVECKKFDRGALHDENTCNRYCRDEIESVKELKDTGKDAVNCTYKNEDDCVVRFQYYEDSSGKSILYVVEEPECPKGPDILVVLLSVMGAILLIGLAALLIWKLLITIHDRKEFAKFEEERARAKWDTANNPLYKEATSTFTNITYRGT

Entries after “also recorded” stand apart in the source; their conditions may differ.

As usually defined, the tissue uptake is the percentage of the injected dose found per gram of tissue. `CSCC[C@H](NC(=O)[C@H](CC(C)C)NC(=O)[C@H](Cc1c[nH]cn1)NC(=O)CNC(=O)[C@@H](NC(=O)[C@H](C)NC(=O)[C@H](Cc1c[nH]c2ccccc12)NC(=O)[C@H](CCC(N)=O)NC(=O)CCCCCNC(=O)[C@H](CCC(=O)NCCCC[C@@H]1NC(=O)[C@@H](Cc2ccc(O)cc2)NC(=O)[C@H](CC(=O)O)NC(=O)CNC(=O)[C@H](CCCNC(=N)N)NC1=O)NC(=O)CN1CCN(CC(=O)O)CCN(CC(=O)O)CC1)C(C)C)C(N)=O` [^64Cu-NO2A-RGD-Glu-6-Ahx-BBN(7-14)NH2, metal not drawn]: in data set [1], the “Time of maximum internalization” value is reported as ~ 90 min. Further, the tissue uptake at 1 h in data set [2] (pancreas) was 5.9 ± 1.74 %ID/g; in data set [5] (Bone) it was 0.52 ± 0.27 %ID/g; in data set [5] (Brain), 0.05 ± 0.01 %ID/g; in data set [5] (Heart), 0.35 ± 0.1 %ID/g; in data set [5] (Large intestine), 1.34 ± 0.11 %ID/g; in [5] (Lung), 0.97 ± 0.25 %ID/g. Moreover, the tissue uptake at 1 h was 0.22 ± 0.08 %ID/g in data set [5] (Muscle); 21.6 ± 3.3 %ID/g in data set [5] (Pancreas); 5.21 ± 0.75 %ID/g in data set [5] (Small intestine); 1.04 ± 0.08 %ID/g in data set [6] (ICR SCID, 750 kBq (~20 uCi)); 3.39 ± 3.54 %ID/g in data set [6] (SCID, 750 kBq, Biodistribution, Bladder, PC-3 tumor-bearing SCID mice, tail vein injection, 1 h p.i., mean±S.D., n=5). The tissue uptake dose at 1 h in [2] (whole blood) is 0.42 %ID; in [5], 0.72 ± 0.1 %ID. Besides, the Urinary excretion in data set [3] is ~85%. In addition, the MicroPET image quality result in data set [4] was “high-quality, high-contrast images”. Besides, in data set [5], the tissue uptake dose at 4 h was found to be 0.16 ± 0.05 %ID. In addition, in data set [5], the tissue uptake dose at 24 h is 0.18 ± 0.02 %ID. The tissue uptake at 4 h in [5] (Bone) amounted to 0.13 ± 0.08 %ID/g; in data set [5] (Brain), 0.04 ± 0.02 %ID/g; in data set [5] (Heart), 0.22 ± 0.05 %ID/g; in data set [5] (Large intestine), 6.86 ± 0.88 %ID/g; in data set [5] (Muscle), 0.09 ± 0.04 %ID/g; in [5] (Pancreas), 13.2 ± 1.79 %ID/g. The tissue uptake at 4 h was 2.1 ± 0.4 %ID/g in data set [5] (Small intestine) and 0.55 ± 0.33 %ID/g in [6] (SCID, 750 kBq, Biodistribution, Bladder, PC-3 tumor-bearing SCID mice, tail vein injection, 4 h p.i., mean±S.D., n=5). Moreover, the tissue uptake at 24 h in [5] (Bone) is 0.13 ± 0.15 %ID/g; in data set [5] (Brain), 0.03 ± 0.02 %ID/g; in data set [5] (Heart), 0.48 ± 0.17 %ID/g; in [5] (Large intestine), 0.85 ± 0.18 %ID/g; in data set [5] (Muscle) it was 0.08 ± 0.1 %ID/g; in data set [5] (Pancreas), 5.18 ± 0.57 %ID/g. Besides, the tissue uptake at 24 h in data set [5] (Small intestine) stood at 0.78 ± 0.14 %ID/g; in data set [6] (SCID, 750 kBq, Biodistribution, Bladder, PC-3 tumor-bearing SCID mice, tail vein injection, mean±S.D., n=5), 0.31 ± 0.29 %ID/g; in data set [6] (SCID, 750 kBq, Biodistribution, Tumor, PC-3 tumor-bearing SCID mice, tail vein injection, mean±S.D., n=5, bilateral xenografts), 2.42 ± 0.57 %ID/g. In addition, in data set [7], the “Biodistribution, Tumor” value stood at 3.95±1.04 %ID/g.

Regarding NO2A-RGD, the “Reduction of cellular uptake of ^64Cu-NO2A-RGD-Glu-6-Ahx-BBN(7-14)NH2 tracer” value in [8] was 65%.

Consider NO3A-RGD-BBN(7-14)NH2, for which the IC50 in data set [9] was 92.8 ± 3.53 nM.

As for ^64Cu-NO3A-BBN(7-14)NH2, the PC-3 tumor retention in data set [10] is listed as 0.44±0.39 %ID/g.

Consider ^64Cu-NO3A-RGD, for which, in data set [10], the PC-3 tumor retention is 0.55±0.32 %ID/g.

As to ^64Cu-NO3A-RGD-BBN(7-14)NH2, the “Internalization rate compared to ^64Cu-NO2A-RGD-Glu-6-Ahx-BBN(7-14)NH2” value in data set [11] is “approximately three times higher”. Moreover, in data set [10], the PC-3 tumor retention was 2.04±0.35 %ID/g and the “Retention in the kidneys” value is reported as 1.87±0.41 %ID/g.

^natCu-NO2A-RGD: the “Displacement of 125I-Echistatin (binding affinity for αvβ3 receptors)” value in data set [12] was “minimal displacement; also recorded: extremely poor binding affinity”.
